Substrate in this test: F protein of wild type RSV A/Long (respiratory syncytial virus, strain A/Long) (UniProt P12568)
The test is described as follows: cell-based or functional assay.

Numbering of substitutions follows the chain as printed.

Sequence of F protein of wild type RSV A/Long (respiratory syncytial virus, strain A/Long) (P12568 26-574): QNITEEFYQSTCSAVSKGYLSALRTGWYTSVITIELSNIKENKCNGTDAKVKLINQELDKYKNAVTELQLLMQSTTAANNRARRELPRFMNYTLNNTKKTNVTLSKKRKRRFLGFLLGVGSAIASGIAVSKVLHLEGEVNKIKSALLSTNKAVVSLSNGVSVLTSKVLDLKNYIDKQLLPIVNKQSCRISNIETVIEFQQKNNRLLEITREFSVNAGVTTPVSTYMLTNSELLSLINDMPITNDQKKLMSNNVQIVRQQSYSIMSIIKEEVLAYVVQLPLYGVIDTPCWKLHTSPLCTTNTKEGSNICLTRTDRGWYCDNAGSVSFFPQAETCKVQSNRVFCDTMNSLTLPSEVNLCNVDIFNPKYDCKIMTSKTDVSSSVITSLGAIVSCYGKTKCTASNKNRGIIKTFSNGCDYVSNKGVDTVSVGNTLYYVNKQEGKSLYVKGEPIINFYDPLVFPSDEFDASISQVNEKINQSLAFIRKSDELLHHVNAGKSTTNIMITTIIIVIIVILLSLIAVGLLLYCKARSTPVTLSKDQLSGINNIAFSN

B1: A17d4 (Fab) (Fab, V domains shown)
VH: QVTLRESGPALVKPTQTLTLTCTFSGFSLSTAGMSVGWIRQPPGKALEWLADIWWDGKKSYNPSLKDRLTISKDTSKNQVVLKVTNMDPADTATYYCARDMIFNFYFDVWGQGTTVTVSS
VL: DIQMTQSPSTLSASVGDRVTITCLPSSRVGYMHWYQQKPGKAPKLLIYDTMYQASGVPSRFSGSGSGTEFTLTISSLQPDDFATYYCFQFSGYPFTFGGGTKLEIK
For B1, the Fold Difference (Control IC50) is 31 fold; the Fold Difference (Curve IC50) was 25 fold; the Mean IC50 (Control), RSV microneutralization was 0.0171 µg/mL; the Mean IC50 (Curve), RSV microneutralization is 0.0179 µg/mL.

B2: A4B4 (Fab) (Fab, V domains shown)
VH: B1 VH with G57D, S60H
VL: B1 VL with L24S, P25A, M51F, Y52F, Q53L, A54D, F90G
In the case of B2, the Fold Difference (Control IC50) turned out to be 13 fold; the Fold Difference (Curve IC50) worked out at 11 fold; the Mean IC50 (Control), RSV microneutralization turned out to be 0.0411 µg/mL; the Mean IC50 (Curve), RSV microneutralization came to 0.0414 µg/mL.

B3: A8c7 (Fab) (Fab, V domains shown)
VH: B1 VH with G57D, F105W
VL: B1 VL with L24S, P25A, M51R, A54S, F90G
As for B3, the Fold Difference (Control IC50) was determined as 34 fold; the Fold Difference (Curve IC50) was determined as 3 fold; the Mean IC50 (Control), RSV microneutralization is 0.157 µg/mL; the Mean IC50 (Curve), RSV microneutralization amounted to 0.177 µg/mL.

B4: A1h5 (Fab) (Fab, V domains shown)
VH: B1 VH with A32P, S60H, F105W
VL: B1 VL with L24S, P25L, R28S, M51F, Y52F, Q53H, A54R, F90G
Consider B4, for which the Fold Difference (Control IC50) was determined as 3 fold; the Fold Difference (Curve IC50) came out at 2 fold; the Mean IC50 (Control), RSV microneutralization turned out to be 0.176 µg/mL; the Mean IC50 (Curve), RSV microneutralization was determined as 0.194 µg/mL.

The values above are taken from US20020177126A1.
